The target of one experiment is HLA-DRB1*01:01 (Homo sapiens, UniProt P01903+P01911, A100R/D57E/F55L/F60I/F76Y/I96L/L162R/M171V/P40L/Q125E/R42F/V115G/Y59C). As to the kind of experiment: Competition peptide-binding assay, HLA-DRB1*01:01. Here is the method:
(§1) Stepwise binding analysis of 15-mer peptides derived from both native and citrullinated α-enolase to HLA-DRB1*01, *04:01, and *04:04 was performed using the ProImmune Class II Reveal assay (ProImmune, Oxford, UK). Relevant peptides were thereafter synthesized by GenScript (Piscataway, NJ, USA) and used for competition peptide-binding assays. […] Finally, peptide-binding affinity to the three different HLA alleles was assessed in direct binding assays in which N-terminally biotinylated epitopes (GenScript, Piscataway, NJ, USA) were incubated at concentrations from 5 to 0.05 μM with plate-bound relevant HLA-DRB1 molecules in the absence of a competitor peptide ([22]). The inflection point of the binding curve of a known binding epitope was used as a cutoff to separate weakly binding epitopes from background.
We decided to make use of HLA-DRB1*01:01 as a representative model for HLA-DRB1*01.

For a further experiment, the target named is HLA-DRB1*04:04 (Homo sapiens, UniProt P01903+P01911, A100R/A169T/F76Y/I96L/K127E/L162R/M171V/N62H/P40V/Q125Y/R42H/S133A/S149N/S66Y/V209L/W38E). Put plainly: Competition peptide-binding assay, HLA-DRB1*04:04. Here is the method: as §1, with “background. […]” for “background.”
The target of a further experiment is HLA-DRB1*04:01 (Homo sapiens, UniProt P01903+P01911, A100K/A169T/F76Y/I96L/K127E/L162R/M171V/N62H/P40V/Q125Y/R42H/S133A/S149N/S66Y/V115G/V209L/W38E). As to the kind of experiment: biochemical.
The target of experiment [1] is HLA-DRB1*04:01 (plate-bound, peptide-binding assays) (human). As to the kind of experiment: competition peptide-binding assay on plates.
In experiment [2] the target is HLA-DRB1*01:01 (plate-bound, peptide-binding assays) (human). Put plainly: competition peptide-binding assay on plates.
The target of experiment [3] is HLA-DRB1*04:04 (plate-bound, peptide-binding assays) (human). Put plainly: competition peptide-binding assay on plates.
The mark [4] stands for this setting: competition with 0.02 μM biotinylated HA306–318, plate-bound HLA-DRB1*01:01, increasing peptide concentrations, read-out: IC50 *01:01.
The mark [5] stands for this setting: competition with 0.02 μM biotinylated GAD65 270–285, plate-bound HLA-DRB1*04:04, increasing peptide concentrations, read-out: IC50 *04:04.

Read-outs that look alike come from different tables or passages of the source. Square brackets hold non-standard residues; d marks the D form. Ends that are not written are not given here. Peptide text beside a SMILES is read from it. Cit = NC(=O)NCCC[C@H](N)C(=O)O

As usually defined, the IC50 is the midpoint of a concentration-inhibition curve.

Regarding `CC[C@H](C)[C@H](NC(=O)[C@H](CCCNC(=N)N)NC(=O)[C@H](CCSC)NC(=O)[C@H](C)NC(=O)[C@H](CCC(=O)O)NC(=O)[C@H](CCCNC(=N)N)NC(=O)[C@H](Cc1ccccc1)NC(=O)[C@H](CC(N)=O)NC(=O)[C@H](C)NC(=O)[C@H](C)NC(=O)CNC(=O)[C@@H](NC(=O)[C@@H]1CCCN1C(=O)[C@@H](N)CC(C)C)C(C)C)C(=O)NCC(=O)O` [compound 171] (H-LPVGAANFREAMRIG-OH; N-terminus and C-terminus assumed), the half-inhibitory concentration (IC50) at HLA-DRB1*01:01 (setting [4]) and at HLA-DRB1*04:04 (setting [5]) was more than 50000 nM each time.
Turning to `CC[C@H](C)[C@H](NC(=O)[C@H](Cc1c[nH]cn1)NC(=O)[C@H](CCC(=O)O)NC(=O)[C@@H](NC(=O)[C@H](C)NC(=O)[C@H](CCCCN)NC(=O)[C@H](CO)NC(=O)[C@@H](NC(=O)CNC(=O)[C@H](CCCCN)NC(=O)CNC(=O)[C@H](CCSC)NC(=O)[C@H](Cc1ccc(O)cc1)NC(=O)[C@@H](N)CCCNC(=N)N)C(C)C)C(C)C)C(=O)N[C@@H](CC(N)=O)C(=O)O` [compound 56] (H-RYMGKGVSKAVEHIN-OH; N-terminus and C-terminus assumed), the IC50 at HLA-DRB1*01:01 (setting [4]) and on HLA-DRB1*04:04 (setting [5]) was more than 50000 nM each time.
Consider `CC[C@H](C)[C@H](NC(=O)[C@H](CCCNC(N)=O)NC(=O)[C@@H](N)CCCCN)C(=O)N[C@@H](C)C(=O)N[C@@H](CCCCN)C(=O)N[C@@H](C)C(=O)N[C@H](C(=O)N[C@@H](CC(N)=O)C(=O)N[C@@H](CCC(=O)O)C(=O)N[C@@H](CCCCN)C(=O)N[C@@H](CO)C(=O)N[C@@H](CS)C(=O)N[C@@H](CC(N)=O)C(=O)N[C@@H](CS)C(=O)N[C@@H](CC(C)C)C(=O)O)C(C)C` [cit326] (H-K[Cit]IAKAVNEKSCNCL-OH), for which the IC50 is more than 50000 nM on HLA-DRB1*01:01 (setting [4]) and 700 nM at HLA-DRB1*04:04 (setting [5]).
On to `CC[C@H](C)[C@H](NC(=O)[C@@H](N)C(C)C)C(=O)NCC(=O)N[C@@H](CCSC)C(=O)N[C@@H](CC(=O)O)C(=O)N[C@H](C(=O)N[C@@H](C)C(=O)N[C@@H](C)C(=O)N[C@@H](CO)C(=O)N[C@@H](CCC(=O)O)C(=O)N[C@@H](Cc1ccccc1)C(=O)N[C@@H](Cc1ccccc1)C(=O)N[C@@H](CCCNC(N)=O)C(=O)N[C@@H](CO)C(=O)NCC(=O)O)C(C)C` [cit241] (H-VIGMDVAASEFF[Cit]SG-OH), for which the IC50 came to 42000 nM at HLA-DRB1*01:01 (setting [4]), 200 nM on HLA-DRB1*04:04 (setting [5]) and 2500 nM against HLA-DRB1*04:01.
For the molecule `CC(C)C[C@H](NC(=O)CNC(=O)[C@H](CCCCN)NC(=O)[C@H](CO)NC(=O)[C@@H](N)[C@@H](C)O)C(=O)N[C@@H](Cc1ccccc1)C(=O)N[C@@H](CCCNC(N)=O)C(=O)N[C@@H](C)C(=O)N[C@@H](C)C(=O)N[C@H](C(=O)N1CCC[C@H]1C(=O)N[C@@H](CO)C(=O)NCC(=O)N[C@@H](C)C(=O)N[C@@H](CO)C(=O)O)C(C)C` [cit26] (H-TSKGLF[Cit]AAVPSGAS-OH), the IC50 was found to be 1900 nM at HLA-DRB1*01:01 (setting [4]), 500 nM at HLA-DRB1*04:04 (setting [5]) and 1500 nM against HLA-DRB1*04:01.
On to “α-enolase peptide Cit11 (residues 11–25), citrullinated”, for which the figures for the concentration for half-maximal inhibition (IC50) in experiment [1], in experiment [2] and in experiment [3] were 2200 nM, 25000 nM and 1700 nM, respectively.
Regarding `CC[C@H](C)[C@H](N)C(=O)N[C@@H](Cc1ccccc1)C(=O)N[C@@H](CC(=O)O)C(=O)N[C@@H](CO)C(=O)N[C@@H](CCCNC(N)=O)C(=O)NCC(=O)N[C@@H](CC(N)=O)C(=O)N1CCC[C@H]1C(=O)N[C@H](C(=O)N[C@H](C(=O)N[C@@H](CCC(=O)O)C(=O)N[C@@H](CC(=O)O)C(=O)N[C@H](C(=O)N[C@@H](CC(C)C)C(=O)N[C@@H](Cc1ccccc1)C(=O)O)C(C)C)C(C)C)[C@@H](C)O` [cit11] (H-IFDS[Cit]GNPTVEDVLF-OH), the half-maximal inhibitory concentration (IC50) at HLA-DRB1*01:01 is 25000 nM; on HLA-DRB1*04:04 it was 1700 nM.
Consider `CC[C@H](C)[C@H](NC(=O)[C@H](CCCCN)NC(=O)[C@H](CC(C)C)NC(=O)[C@@H](NC(=O)[C@H](CO)NC(=O)[C@@H](N)CCSC)[C@@H](C)CC)C(=O)N[C@@H](Cc1c[nH]cn1)C(=O)N[C@@H](C)C(=O)N[C@@H](CCCNC(=N)N)C(=O)N[C@@H](CCC(=O)O)C(=O)N[C@H](C(=O)N[C@@H](Cc1ccccc1)C(=O)N[C@@H](CC(=O)O)C(=O)N[C@@H](CO)C(=O)N[C@@H](CCCNC(=N)N)C(=O)O)[C@@H](C)CC` [peptide 1] (H-MSILKIHAREIFDSR-OH), for which the half-maximal inhibitory concentration (IC50) at HLA-DRB1*01:01 (setting [4]) was 3500 nM; at HLA-DRB1*04:04 (setting [5]) it was more than 50000 nM; against HLA-DRB1*04:01, more than 50000 nM.
In the case of `CC[C@H](C)[C@H](N)C(=O)N[C@@H](Cc1ccccc1)C(=O)N[C@@H](CC(=O)O)C(=O)N[C@@H](CO)C(=O)N[C@@H](CCCNC(=N)N)C(=O)NCC(=O)N[C@@H](CC(N)=O)C(=O)N1CCC[C@H]1C(=O)N[C@H](C(=O)N[C@H](C(=O)N[C@@H](CCC(=O)O)C(=O)N[C@@H](CC(=O)O)C(=O)N[C@H](C(=O)N[C@@H](CC(C)C)C(=O)N[C@@H](Cc1ccccc1)C(=O)O)C(C)C)C(C)C)[C@@H](C)O` [peptide 11] (H-IFDSRGNPTVEDVLF-OH; N-terminus and C-terminus assumed), the IC50 at HLA-DRB1*01:01 (setting [4]) and at HLA-DRB1*04:04 (setting [5]) was more than 50000 nM in each case.
Turning to `CC[C@H](C)[C@H](NC(=O)[C@H](CCCNC(=N)N)NC(=O)[C@@H](N)CCCCN)C(=O)N[C@@H](C)C(=O)N[C@@H](CCCCN)C(=O)N[C@@H](C)C(=O)N[C@H](C(=O)N[C@@H](CC(N)=O)C(=O)N[C@@H](CCC(=O)O)C(=O)N[C@@H](CCCCN)C(=O)N[C@@H](CO)C(=O)N[C@@H](CS)C(=O)N[C@@H](CC(N)=O)C(=O)N[C@@H](CS)C(=O)N[C@@H](CC(C)C)C(=O)O)C(C)C` [peptide 326] (H-KRIAKAVNEKSCNCL-OH), the IC50 is more than 50000 nM at HLA-DRB1*01:01 (setting [4]) and 700 nM at HLA-DRB1*04:04 (setting [5]).
Turning to MSILKIHA[Cit]EIFDS[Cit] [α-enolase peptide Cit1 (residues 1–15), citrullinated], the IC50 in experiment [2] and in experiment [3] was more than 50000 nM throughout.
As for VIGMDVAASEFF[Cit]SG [α-enolase peptide Cit241 (residues 241–255), citrullinated], the values for the half-maximal inhibitory concentration (IC50) in experiment [1], in experiment [2] and in experiment [3] were 2500 nM, 42000 nM and 200 nM, respectively.
Taken in the same sequence, the figures for K[Cit]IAKAVNEKSCNCL (cysteine pairing not given here) [α-enolase peptide Cit326 (residues 326–340), citrullinated] were 1900 nM, more than 50000 nM and 700 nM.
In the case of LPVGAANF[Cit]EAM[Cit]IG [α-enolase peptide Cit171 (residues 171–185), citrullinated], in experiment [3], the IC50 was more than 50000 nM.
Consider MSILKIHAREIFDSR [α-enolase peptide 1 (residues 1–15), native], for which the results for the IC50 in experiment [2] and in experiment [3] were 3500 nM and more than 50000 nM, respectively.
Take KRIAKAVNEKSCNCL [α-enolase peptide 326 (residues 326–340), native]: the values for the IC50 in experiment [1], in experiment [2] and in experiment [3] were 1700 nM, more than 50000 nM and 700 nM, respectively.
With VIGMDVAASEFFRSG [α-enolase peptide 241 (residues 241–255), native], the half-maximal inhibitory concentration (IC50) in experiment [1] worked out at 2000 nM; in experiment [2], 35000 nM; in experiment [3], 500 nM.
TSKGLFRAAVPSGAS [α-enolase peptide 26 (residues 26–40), native]: the IC50 in experiment [1] is 4000 nM; in experiment [2], 1400 nM; in experiment [3] it was 500 nM.
Taken in the same sequence, the figures for KAKFAGRNFRNPLAK [α-enolase peptide 420 (residues 420–434), native] were more than 50000 nM, more than 50000 nM and 25000 nM.
For the molecule TSKGLF[Cit]AAVPSGAS [α-enolase peptide Cit26 (residues 26–40), citrullinated], the IC50 was 1500 nM in experiment [1], 1900 nM in experiment [2] and 500 nM in experiment [3].
The like results for KAKFAG[Cit]NF[Cit]NPLAK [α-enolase peptide Cit420 (residues 420–434), citrullinated] were, in that order, more than 50000 nM, more than 50000 nM and 28000 nM.

For the origin of these results see paper PMC5108039, “Functional and Structural Characterization of a Novel HLA-DRB1*04:01-Restricted α-Enolase T Cell Epitope in Rheumatoid Arthritis” (Frontiers in Immunology, 2016).
